Reference: patent US20220204643A1 (published 2022)
Like-named read-outs stand apart in the source and are kept apart here.

Columns and labels:
[1] = biological target: T1, Jupiter microtubule associated homolog 2 (human, UniProt Q9H910 1-190)
T1 construct: also called HN1L
T1 sequence: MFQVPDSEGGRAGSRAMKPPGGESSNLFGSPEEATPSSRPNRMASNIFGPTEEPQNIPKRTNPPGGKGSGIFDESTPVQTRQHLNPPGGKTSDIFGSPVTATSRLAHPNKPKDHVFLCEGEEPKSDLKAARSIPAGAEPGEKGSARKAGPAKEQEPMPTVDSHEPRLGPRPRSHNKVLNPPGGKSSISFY

cancer/testis antigen 1A = biological target: T2, cancer/testis antigen 1A (human, UniProt P78358 1-180); test: protein array
T2 construct: on protein array; also called CTAG1A

[2] = biological target: T3, aarF domain containing kinase 5 (human, UniProt Q3MIX3 1-580); test: protein array
T3 construct: on protein array; also called ADCK5

[3] = biological target: T4, DIX domain containing 1, transcript variant 2 (human, UniProt Q155Q3 220-683); test: protein array
T4 construct: on protein array; also called DIXDC1
T4 sequence: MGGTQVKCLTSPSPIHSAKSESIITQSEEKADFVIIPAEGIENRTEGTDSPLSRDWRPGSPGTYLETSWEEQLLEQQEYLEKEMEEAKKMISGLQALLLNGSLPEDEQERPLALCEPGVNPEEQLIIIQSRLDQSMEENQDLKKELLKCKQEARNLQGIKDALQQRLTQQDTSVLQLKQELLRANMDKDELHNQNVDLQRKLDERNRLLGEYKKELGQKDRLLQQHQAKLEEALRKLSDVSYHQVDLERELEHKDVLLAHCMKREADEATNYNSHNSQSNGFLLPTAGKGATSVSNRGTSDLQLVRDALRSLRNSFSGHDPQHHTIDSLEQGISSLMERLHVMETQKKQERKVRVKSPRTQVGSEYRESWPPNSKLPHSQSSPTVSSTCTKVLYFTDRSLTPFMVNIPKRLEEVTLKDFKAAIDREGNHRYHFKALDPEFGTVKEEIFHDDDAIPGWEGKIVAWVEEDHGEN

[4] = biological target: T5, ubiquilin 1, transcript variant 2 (human, UniProt Q9UMX0 2-589)
T5 construct: HuProt array protein, full-length recombinant from yeast; also called UBQLN1

[5] = biological target: T6, ubiquilin 1, transcript variant 2 (human, UniProt Q9UMX0 2-589); test: protein array
T6 construct: on protein array; also called UBQLN1

[6] = biological target: T7, quinoid dihydropteridine reductase, transcript variant 1 (human, UniProt P09417 2-244); test: protein array
T7 construct: on protein array; also called QDPR
T7 sequence: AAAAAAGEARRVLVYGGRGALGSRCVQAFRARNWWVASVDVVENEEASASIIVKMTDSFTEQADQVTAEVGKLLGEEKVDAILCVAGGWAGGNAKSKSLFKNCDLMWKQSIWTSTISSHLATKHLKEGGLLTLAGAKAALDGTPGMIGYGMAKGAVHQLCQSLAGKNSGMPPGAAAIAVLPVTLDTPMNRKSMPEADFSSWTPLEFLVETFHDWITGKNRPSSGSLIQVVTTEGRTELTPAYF

[7] = biological target: T8, quinoid dihydropteridine reductase, transcript variant 1 (human, UniProt P09417 2-244)
T8 construct: HuProt array protein, full-length recombinant from yeast; also called QDPR
T8 sequence: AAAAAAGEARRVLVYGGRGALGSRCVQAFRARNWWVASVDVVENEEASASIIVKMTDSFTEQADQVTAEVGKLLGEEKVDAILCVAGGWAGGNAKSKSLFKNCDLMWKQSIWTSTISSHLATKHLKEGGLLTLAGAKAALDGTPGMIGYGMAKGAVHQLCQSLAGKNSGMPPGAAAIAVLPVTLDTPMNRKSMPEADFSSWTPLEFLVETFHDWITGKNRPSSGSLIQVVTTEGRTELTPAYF

[8] = biological target: T9, influenza virus NS1A binding protein (human, UniProt Q9Y6Y0 1-642); test: protein array
T9 construct: on protein array; also called IVNS1ABP
T9 sequence: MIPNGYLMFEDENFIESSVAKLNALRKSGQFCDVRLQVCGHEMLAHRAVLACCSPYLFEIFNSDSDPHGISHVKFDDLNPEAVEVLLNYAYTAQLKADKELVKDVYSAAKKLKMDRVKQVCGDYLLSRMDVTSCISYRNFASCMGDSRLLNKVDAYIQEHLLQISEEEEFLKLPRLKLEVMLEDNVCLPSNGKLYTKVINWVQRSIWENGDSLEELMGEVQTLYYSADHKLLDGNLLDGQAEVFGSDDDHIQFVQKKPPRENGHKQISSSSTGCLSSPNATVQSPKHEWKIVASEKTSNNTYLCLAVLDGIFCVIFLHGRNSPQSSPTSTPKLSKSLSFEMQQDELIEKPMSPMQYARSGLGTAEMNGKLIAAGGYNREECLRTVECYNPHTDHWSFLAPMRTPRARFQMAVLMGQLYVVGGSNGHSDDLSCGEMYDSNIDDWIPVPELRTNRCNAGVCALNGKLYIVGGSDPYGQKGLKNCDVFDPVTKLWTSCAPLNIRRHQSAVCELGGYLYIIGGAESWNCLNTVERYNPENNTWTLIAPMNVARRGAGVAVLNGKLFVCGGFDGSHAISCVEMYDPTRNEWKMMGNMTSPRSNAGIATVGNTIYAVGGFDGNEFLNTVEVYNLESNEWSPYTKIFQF

[9] = biological target: T10, kelch like ECH associated protein 1, transcript variant 1 (human, UniProt Q14145 1-624); test: protein array
T10 construct: on protein array; also called KEAP1
T10 sequence (Q14145 whole entry, change not shown): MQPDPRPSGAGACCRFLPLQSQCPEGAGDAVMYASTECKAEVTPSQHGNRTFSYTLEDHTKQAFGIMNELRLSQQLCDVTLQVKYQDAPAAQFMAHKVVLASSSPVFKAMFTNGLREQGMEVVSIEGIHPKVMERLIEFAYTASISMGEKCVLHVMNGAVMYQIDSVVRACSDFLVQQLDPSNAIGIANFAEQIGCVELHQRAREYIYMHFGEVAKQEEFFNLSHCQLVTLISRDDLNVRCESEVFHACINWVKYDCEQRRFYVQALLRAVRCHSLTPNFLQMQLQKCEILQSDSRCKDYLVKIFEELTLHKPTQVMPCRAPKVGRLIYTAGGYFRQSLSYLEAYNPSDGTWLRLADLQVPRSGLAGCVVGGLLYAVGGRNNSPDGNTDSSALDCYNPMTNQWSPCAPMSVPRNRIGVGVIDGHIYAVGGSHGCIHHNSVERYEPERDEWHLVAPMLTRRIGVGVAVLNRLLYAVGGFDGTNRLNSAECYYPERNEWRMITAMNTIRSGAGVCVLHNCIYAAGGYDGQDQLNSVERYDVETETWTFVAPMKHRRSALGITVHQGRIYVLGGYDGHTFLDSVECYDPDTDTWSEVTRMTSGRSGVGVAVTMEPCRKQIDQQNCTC

T2 sequence (P78358 whole entry): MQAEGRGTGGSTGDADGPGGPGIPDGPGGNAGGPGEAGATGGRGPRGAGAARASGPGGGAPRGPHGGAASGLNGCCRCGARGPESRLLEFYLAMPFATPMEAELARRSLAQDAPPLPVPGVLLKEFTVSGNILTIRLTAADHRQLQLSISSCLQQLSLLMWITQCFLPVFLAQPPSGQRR
T3 sequence (Q3MIX3 other isoform, or with tags, fused parts or gaps limits assumed): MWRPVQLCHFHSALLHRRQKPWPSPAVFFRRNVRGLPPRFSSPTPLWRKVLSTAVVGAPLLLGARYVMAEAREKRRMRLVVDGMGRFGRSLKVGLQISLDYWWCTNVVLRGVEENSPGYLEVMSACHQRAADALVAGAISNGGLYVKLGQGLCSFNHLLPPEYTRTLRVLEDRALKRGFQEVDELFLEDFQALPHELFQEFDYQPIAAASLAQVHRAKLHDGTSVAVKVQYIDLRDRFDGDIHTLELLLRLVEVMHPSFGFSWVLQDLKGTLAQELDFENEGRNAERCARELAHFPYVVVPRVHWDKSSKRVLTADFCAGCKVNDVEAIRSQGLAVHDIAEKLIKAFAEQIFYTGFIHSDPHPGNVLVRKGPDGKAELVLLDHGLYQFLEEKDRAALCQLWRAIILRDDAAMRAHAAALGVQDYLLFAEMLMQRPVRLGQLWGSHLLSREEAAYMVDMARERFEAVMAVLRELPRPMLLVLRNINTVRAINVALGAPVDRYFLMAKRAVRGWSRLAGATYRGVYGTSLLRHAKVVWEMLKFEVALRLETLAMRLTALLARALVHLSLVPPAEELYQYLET

B1: TTES1011 (antibody, V domains shown)
VH: PVTLRESGPALVKPTQTLTLTCTFSGFSLSTSGMCVSWIRQPPGKALEWLARIDWDDDKYYSTSLKTRLTISKDTSKNQVVLTMTNMDPVDTATYYCARMQIVATTQTYYYYYGMDVWGQGTTVTVSS
VL: PAVLTQPPSVSGAPGQRVTISCTGSSSNIGAGYDVHWYQQLPGTAPKLLIYGNSNRPSGVPDRFSGSKSGTSASLAITGLQAEDEADYYCQSYDSSLSGSGVFGGGTKLTVLG
B1: binds [1].

B2: TTHY1004 (antibody, V domains shown)
VH: PVQLQESGPGLVKPSQTLSLTCTVSGGSISSGTYYWSWIRQPAGKGLEWIGRIYASGSTNYNPSLKSRVTISVDTSKNQFSLKLTSVTAADTAVYYCARYSGSYPLGFDYWGQGTLVTVSS
VL: DIQMTQSPSSLSASVGDRVTITCRASQSISTYLNWYQQKPGMAPKLLIYAASTLQSGVPSRFSGSGSATDYTLTISSLQPEDFATYYCQQSYNTPLTFGGGTKVDIKR
notes: VH/VL tied via antigen in summary, not by name in this stretch
B2: binds (cancer/testis antigen 1A).

B3: TTES1009 (antibody, V domains shown)
VH: EVQLVESGGGLVQPGGSLRLSCAASGFTFSSYEMNWVRQAPGKGLEWVSYISSSGSTIYYADSVKGRFTISRDNAKNSLYLQMNSLRAEDTAVYYCARRGFYYYYGMDVWGQGTTVTVSS
VL: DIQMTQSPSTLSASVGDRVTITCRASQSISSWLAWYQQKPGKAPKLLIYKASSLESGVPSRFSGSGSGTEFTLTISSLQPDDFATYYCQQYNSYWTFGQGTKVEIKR
notes: as for B2
B3: binds [2].

B4: TTES1010 (antibody, V domains shown)
VH: EVQLVESGGGLVQPGGSLRLSCAASGFTFSSYSMNWVRQAPGKGLEWVSYISSSSSTIYYADSVKGRFTISRDNAKNSLYLQMNSLRAEDTAVYYCASLLGGDPDYWGQGTLVTVSS
VL: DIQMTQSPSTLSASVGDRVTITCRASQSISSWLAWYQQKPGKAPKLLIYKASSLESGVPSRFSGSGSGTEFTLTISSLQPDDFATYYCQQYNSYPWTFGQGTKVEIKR
notes: as for B2
B4: binds [3].

B5: TBRE1030 (antibody, V domains shown)
VH: QVQLQESGPGLVKPSQTLSLTCTVSGGSISSGGYYWSWIRQHPGKGLEWIGYIYYSGSTYYNPSLKSRVTISVDTSKNQFSLKLSSVTAADTAVYYCARDLSCSSTSCHDAFDIWGQGTMVTVSS
VL: not shown
notes: detected with anti-human IgG Fc
B5: binds [4].

B6: TBRE1030 (antibody, V domains shown)
VH: QVQLQESGPGLVKPSQTLSLTCTVSGGSISSGGYYWSWIRQHPGKGLEWIGYIYYSGSTYYNPSLKSRVTISVDTSKNQFSLKLSSVTAADTAVYYCARDLSCSSTSCHDAFDIWGQGTMVTVSS
VL: not shown
notes: VH/VL only
B6: binds [5].

B7: TMEL1034 (antibody, V domains shown)
VH: QLQLQESGPGLVKPWETLSLSCTVSGGSISSSFFYWGWIRQPPGKGLQWIGNIHYTGSTYYNPSLKSRITMSVDTSKNQFSLKLSSVTAADTAVYYCARHRVGDSPGLHYWGQGTLVTVSS
VL: SYELTQPPSVSVSPGQTARITCSGDALPKKYAFWYQQKSGQAPVLVIYEDSKRPSGIPERFSGSSSGTMATLTISGAQVEDESDYYCYSTDSSGNVWVFGGGTKLTVLG
notes: as for B2
B7: binds [6].

B8: TMEL1034 (antibody, V domains shown)
VH: QLQLQESGPGLVKPWETLSLSCTVSGGSISSSFFYWGWIRQPPGKGLQWIGNIHYTGSTYYNPSLKSRITMSVDTSKNQFSLKLSSVTAADTAVYYCARHRVGDSPGLHYWGQGTLVTVSS
VL: SYELTQPPSVSVSPGQTARITCSGDALPKKYAFWYQQKSGQAPVLVIYEDSKRPSGIPERFSGSSSGTMATLTISGAQVEDESDYYCYSTDSSGNVWVFGGGTKLTVLG
notes: as for B5
B8: binds [7].

B9: TOVA1008 (antibody, V domains shown)
VH: ELQLVESGGGLVQPGGSLRLSCAASGFTFSSYWMSWVRQAPGKGLEWVANINQDGGEKYYVDSVKGRFTISRDNAKNSLYLQMNSLRAEDTAVYYCAHYYYDSSGYYQNAEYFQYWGQGTLVTVSS
VL: DIQMTQSPPSLSASVGDRVTITCQASQDISNYLNWYQQKPGKTPKLLIYAASTLETGVPSRFSGSGSGTDFTFTINSLQPEDIATYYCQQYDSLPLTFGGGTKVEIKR
B9: binds [1].

B10: TKIC1002 (antibody, V domains shown)
VH: PVQLQESGPGLVKPSETLSLTCTVSGGSISSYYWSWIRQPPGKGLEWIGYLFYSGSTNYNPSLKSRVTISVDTSKNQFSLKLGSVTAADTAVYYCARHRIFGLDVWGQGTTVTVSS
VL: EIVLTQSPGTLSLSLGERATLSCRASQSVSGSHLAWYQQKPGQAPRLLIYDASSRATGIPDRFSGSGSGTEFTLTISRLEPEDFAVYYCQQYGSSPLWFGQGTKVEIK
notes: VH/VL only
B10: binds [2].

B11: TTES1001 (antibody, V domains shown)
VH: PVQLVQSGAEVKKPGSSVQVSCKGSGGTFSEYGISWLRQAPGQGLEWIGGIIPVLGIPNYAQKFRGRVTITADESTGSAYMEVSSLRSEDTAVYYCAREGLRLARGWFHPWGQGTLVTVTS
VL: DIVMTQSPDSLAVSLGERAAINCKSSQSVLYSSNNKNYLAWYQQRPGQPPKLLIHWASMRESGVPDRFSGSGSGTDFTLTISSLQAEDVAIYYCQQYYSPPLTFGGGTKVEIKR
notes: as for B2
B11: binds [3].

B12: TCER1004 (antibody, V domains shown)
VH: VVQLVESGGGLVQPGGSLRLSCAASGFTFSSYSMNWVRQAPGKGLEWLSYVSSSGSTMYYADSVKGRFTISRDTAKNSLFLQMNSLRAEDTAVYYCAKGGPLRPFDIWGQGTLVTVSS
VL: VIQMTQSPTSLSASVGDRVTITCRASQSISSYLNWYQQKLGKAPKLLIYAASSLQSGVPSRFSGSGSGTDFTLTISSLQPEDFATYYCQQSYSTSLTFGGGTKVEIKR
notes: VH/VL only
B12: binds [8].

B13: THNS1008 (antibody, V domains shown)
VH: QVQLQESGPGLVKPSQTLSLTCAVSGGSISSGGYPWSWIRQPPGKGLEWIGYISYSGSTDYNPSLKSRVTISLDTSSNQFSLNLSSLTAADTAVYYCARGAAFYYGMDVWGQGTTVTVSS
VL: DIQMTQSPSSLSASVGDRVTITCRASQSISTYLNWYQQKPGKAPKLLIYVASSLQSGVPSRFSGSGSGTDFTLTISGLQPEDFATYYCQQSYSTPYTFGQGTKLEIKR
notes: VH/VL only
B13: binds [9].

B14: TBLA1012 (antibody, V domains shown)
VH: LLQLVESGGGVVQPGRSLRLSCAASGFTFTRHGFHWVRQAPGKGLEWVAVISSDGRKIHYTDSVKGRFVISRDDSDNTVYLHMNSLRLGDTALYYCARDSGGTPGPYWGQGTLVTVSS
VL: DVVMTQSPLSLPVTLGQPASISCRSSQSLVHSDGNTYLNWFQQRPGQSPRRLIYMVSNRDSGVPDRFSGSGSGTDFTLKISRVEAEDVGVYYCLQGTHWPPTIGQGTKVEIE
notes: VH/VL only
B14: binds (cancer/testis antigen 1A).

B15: TLUS1001 (antibody, V domains shown)
VH: QVQLQESGPGLVKPSETLSLTCTVSGDSISSNYWSWIRQPPGKGLEWIGYIYYSGSTNYNPSLKSRVTISVDTSKNQFSVKLSSVTAADTAVYYCARYGDYSFDPWGQGTLVTVSS
VL: not shown
notes: as for B2
B15: binds [6].

B16: TLUS1001 (antibody, V domains shown)
VH: QVQLQESGPGLVKPSETLSLTCTVSGDSISSNYWSWIRQPPGKGLEWIGYIYYSGSTNYNPSLKSRVTISVDTSKNQFSVKLSSVTAADTAVYYCARYGDYSFDPWGQGTLVTVSS
VL: not shown
notes: as for B5
B16: binds [7].

B17: TCOL1007 (antibody, V domains shown)
VH: PVQLVESGGGVVQPGRSLRLSCAASGFTFSNYGMHWVRQAPGKGLEWVAVISDDGNDKDNADSVKGRFTISRDNSKNTLYLRMNSLRREDTAVYYCARDGFDYWGQGTLVTVSS
VL: DIVMTQTPLSMPVTPGEPASISCRSSQSLLDSDDGKTYLDWYLQKPGQSPQLLIYTVSYRASGVPDRFSGSGSGTDFTLKISRVEAEDVGVYYCMQRIEFPFTFGPGTKVDIKR
notes: VH/VL only
B17: binds [9].
